Consider 3 molecules from publication PMC4052671, “Cloning, expression and characterization of a versatile Baeyer-Villiger monooxygenase from Dietzia sp. D5” (AMB Express, 2014).

One data set concerns CC(=O)Cc1ccccc1. As to the kind of experiment: purified protein. The class given is biochemical, Dietzia sp. D5. The following applies: co-substrate NADPH (60 μM in the standard assay), 50 mM sodium phosphate pH 7.5, 10 mM KCl, 25 °C.
The target in the next data set is T1, BVMO4 (Dietzia sp. D5, UniProt U5S003, P2A).
T1 construct: full length, 612 residues; His-tagged in pET-22b(+) (NcoI/NotI); E. coli BL21-CodonPlus(DE3)-RP; Ni-NTA; about 75 kDa on SDS-PAGE, predicted 72 kDa; FAD added after purification
As to the kind of experiment: activity recovery of purified enzyme on FAD addition. Particulars: FAD added to 10 μM after Ni-NTA purification; phenylacetone as substrate; pH 7.5. Format: biochemical.

Substrate in data set [1]: CC1CCCCC1=O
The data set is described as follows: purified protein. Particulars: co-substrate NADPH (60 μM in the standard assay), 50 mM sodium phosphate pH 7.5, 10 mM KCl, 25 °C. Format: biochemical, Dietzia sp. D5.

Substrate in data set [2]: NC(=O)C1=CN([C@@H]2O[C@H](COP(=O)(O)OP(=O)(O)OC[C@H]3O[C@@H](n4cnc5c(N)ncnc54)[C@H](OP(=O)(O)O)[C@@H]3O)[C@@H](O)[C@H]2O)C=CC1
As to the kind of experiment: purified protein. The class given is biochemical, Dietzia sp. D5. Particulars: NADPH varied, fixed ketone substrate not stated, 50 mM sodium phosphate pH 7.5, 10 mM KCl, 25 °C, varied: cofactor.

One may read the Km as the concentration of substrate that gives half-maximal velocity. By Vmax is commonly meant the top rate of the reaction or transport when substrate is in excess. The term kcat denotes the number of substrate molecules converted per active site and unit of time at saturation. For orientation: kcat/Km means the turnover number divided by the Michaelis constant. With BVMO4 (Dietzia sp. D5; P2A), in the data set with CC(=O)Cc1ccccc1, the Michaelis-Menten constant (Km) came out at 829 ± 163 µM, the Vmax amounted to 4.74 µM/min, the kcat worked out at 0.634 ± 0.104 s⁻¹ and the specificity constant (kcat/Km) turned out to be 770 ± 30 M⁻¹ s⁻¹.
For the molecule `Cc1cc2nc3c(=O)[nH]c(=O)nc-3n(C[C@H](O)[C@H](O)[C@H](O)COP(=O)(O)OP(=O)(O)OC[C@H]3O[C@@H](n4cnc5c(N)ncnc54)[C@H](O)[C@@H]3O)c2cc1C` [FAD], on BVMO4, the “activity recovery of purified enzyme on FAD addition” value is “The enzyme lost its activity during the purification process but was recovered upon addition of FAD”.

B1: BVMO4 (Dietzia sp. D5; P2A) (protein)
chain: MAFTLPESKIAIDIDFDPDHLRQRFEADKQARERKDQLAQFQGLDDVLEVDDSDPFSEPITREPVTEELDALVLGGGFGGLTAGAYLTQNGVENFRLVEYGGDFGGTWYWNRYPGVQCDIESHIYMPLLEETGYVPSQRYADGSEIFEHAQRIGRHYGLYDRTYFQTRATHARWDEQIQRWEVTTDRGDRFVTRVLLRSNGALTKPQLPKVPGIGDFEGKIFHTSRWDYGYTGGSAAGDLAHLRDKRVAVVGTGATGVQVVPYLAQDAKELVVVQRTPSVVQPRNNRKTDPEWVASLTPGWQYERHDNFNGIISGHEVEGNLVDDGWTHLFPELTGQHLVDVPVGELPEGDQALVAELADMNLLMSAHARVDSIVTDPATADGLKPWFGYMCKRPCFNDEYLEAFNRPNVTLAASPAGIDGITSSGIVVAGTHYEVDCIIFATGFETGSGPAGIYGYDVIGREGHSMQEYFSEGARTFHGFFTHGFPNFVELGMSQTAYYVNFVYMLDRKARHAARLVRHLLDSGIGTFEPTAEAEADWVAEVRRSNEPREAYWGACTPGYYNGQGEVSKAVFRDVYNSSEIDFWNMIEAWWNSGRFEGLVFEPARDAVPVA
notes: full length, 612 residues; His-tagged in pET-22b(+) (NcoI/NotI); E. coli BL21-CodonPlus(DE3)-RP; Ni-NTA; about 75 kDa on SDS-PAGE, predicted 72 kDa; FAD added after purification
As to B1, in “purified protein [1]”, the Km came out at 507 ± 142 µM, the Vmax was determined as 3.07 µM/min, the kcat was determined as 0.37 ± 0.095 s⁻¹ and the kcat/Km was 730 ± 20 M⁻¹ s⁻¹. Further, in the data set “purified protein [2]”, the Km came out at 11 ± 2 µM, the Vmax was 4.2 µM/min, the catalytic constant (kcat) stood at 0.507 ± 0.057 s⁻¹ and the kcat/Km stood at 45100 ± 1520 M⁻¹ s⁻¹.
